Patent US8357523B2, “Beta-glucosidase variant enzymes and related polynucleotides” (Codexis, Inc., priority 2009, dated 2013)
Substitutions are numbered along the chain they refer to.

B1: 433 (protein)
chain: SARITQEGAAPAAMLHPEKWPRPATQRLIDPAVEKRVDALLKQLSVEEKVGQVIQGDIGTITPEDLRKYPLGSILAGGDSGPNGDDRAPPKEWLDLADAFYRVSLEKRPGHTPIPVLFGIDAVHGHNNIGSATIFPHNIALGMTRDPELLRRIGEVTAEEMAATGIDWTFAPALSVPRDDRWGRTYEGFSEDPEIVASYSAAIVEGFQGKYGSKDFMAPGRAVACAKHFLADGGTDQGRDQGDARISEDELIRIHNAGYPPAIDAGVLTVMASFSSWQGIKHHGHKQLLTDVLKGQMGFNGFIVGDWNAHDQVPGCTKFNCPTSLIAGLDMYMAADSWKQLYENTLAQVKDGTIPMARLDDAVRRILRVKVLAGLFEKPAPKDRPGLPGLETLGSPEHRAVGREAVRKSLVLLKNDKGTLPLSPKARVLVAGDGADNIGKQSGGWTISWQGTGNRNDEFPGATSILGGIRDAVADAGGSVEFDVAGQYKTKPDVAIVVFGEEPYAEFRGDVETLEYQPDQKQDLTLLKKLKDQGIPVVAVFLSGRPMWVNPELNASDAFVAAWLPGTEGGGVADVLFTDKAGKVQHDFAGKLSYSWPRTAAQTTVNRGDADYNPLFAYGYGLTYKDKSKVGTLPEESGVPAEARQNAGIYFRAGALRLPGRFL
modifications: truncated; signal peptide F-10T
B2: 403 (protein)
chain: B1 chain with R3A, A13P, P109D
modifications: truncated; signal peptide F-10T
B3: 416 (protein)
chain: B1 chain with R3A, P109D, D351E, H586Y
modifications: truncated; signal peptide F-10T
B4: 411 (protein)
chain: B1 chain with R3A, L372S
modifications: truncated; signal peptide F-10T
B5: 410 (protein)
chain: B1 chain with R3A, E502N, T525S
modifications: truncated; signal peptide F-10T
B6: 398 (protein)
chain: B1 chain with S213T
modifications: truncated; signal peptide F-10T
B7: 418 (protein)
chain: B1 chain with A13P, P177V, I203Y, A400T
modifications: truncated; signal peptide F-10T, N-5H
B8: 396 (protein)
chain: B1 chain with R3A, I4S, A601V
modifications: truncated; signal peptide F-10T
B9: 405 (protein)
chain: B1 chain with R3A, A13P, A400T, H586Y
modifications: truncated; signal peptide F-10T
B10: 406 (protein)
chain: B1 chain with A13P, P147T, E159G
modifications: truncated; signal peptide F-10T
B11: 424 (protein)
chain: B1 chain with R3A, A13P, V204I, D291G
modifications: truncated; signal peptide F-10T
B12: 422 (protein)
chain: B1 chain with R3A, A13P, P147T, A400T, E502N, R508Q
modifications: truncated; signal peptide F-10T
B13: 412 (protein)
chain: B1 chain with R3A, E502N, R508Q
modifications: truncated; signal peptide F-10T
B14: 402 (protein)
chain: B1 chain with A13P, P147T, I203Y, T525S, H586Y
modifications: truncated; signal peptide F-10T, K-21R
B15: 419 (protein)
chain: B1 chain with P109D, P147T, H586Y
modifications: truncated; signal peptide F-10T
B16: 413 (protein)
chain: B1 chain with A13P, P147T, E502N, H586Y
modifications: truncated; signal peptide F-10T
B17: 393 (protein)
chain: B1 chain with I4S
modifications: truncated; signal peptide F-10T
B18: 400 (protein)
chain: B1 chain with R3A, P177V, I203Y, M356T, N646K
modifications: truncated; signal peptide F-10T
B19: 434 (protein)
chain: B1 chain with R3A, A13P, P177V, I203Y, A400T, E502N
modifications: truncated; signal peptide F-10T
B20: 408 (protein)
chain: B1 chain with R3A, A13P, P147T, A226G, H586Y
modifications: truncated; signal peptide F-10T
B21: 421 (protein)
chain: B1 chain with R3A, P109D, A400T, E502N, H586Y
modifications: truncated; signal peptide F-10T
B22: 423 (protein)
chain: B1 chain with R3A, P109D, A400T
modifications: truncated; signal peptide F-10T
B23: 417 (protein)
chain: B1 chain with R3A, R508Q
modifications: truncated; signal peptide F-10T
B24: 415 (protein)
chain: B1 chain with R3A, A13P, N128H, E502N, R508Q
modifications: truncated; signal peptide F-10T
B25: 395 (protein)
chain: B1 chain with I61V
modifications: truncated; signal peptide F-10T
B26: 407 (protein)
chain: B1 chain with R3A, P109D, P147T, E502N, H586Y
modifications: truncated; signal peptide F-10T
B27: 409 (protein)
chain: B1 chain with R3A, P109D, P147T, T525S
modifications: truncated; signal peptide F-10T
B28: 404 (protein)
chain: B1 chain with R3A, A13P, P109D, N128K, P597A
modifications: truncated; signal peptide F-10T
B29: 401 (protein)
chain: B1 chain with R3A, T25A, N128H, I203Y, T525S
modifications: truncated; signal peptide F-10T
B30: 425 (protein)
chain: B1 chain with P147T, A400T, E502N
modifications: truncated; signal peptide F-10T
B31: 414 (protein)
chain: B1 chain with P177V, I203Y, A400T, E502N, T525S
modifications: truncated; signal peptide F-10T
B32: 397 (protein)
chain: B1 chain with M161V, P177V, I203Y, A222I, D383G
modifications: truncated; signal peptide F-10T
B33: 399 (protein)
chain: B1 chain with P109D, M356T
modifications: truncated; signal peptide F-10T

Assay: High throughput cellobiose assay: fold improvement in cellobiase activity of CelA variants over a control enzyme (Tables 2A-2D, 3, 5, 6, 7)
Type: biochemical
Conditions: 3.3 g/l cellobiose, 65° C. and pH 5 (incubation overnight); relative to Control #5, Variant No. 366 (SEQ ID NO: 9)

Row | Molecule | Fold Improvement over Control Variant
1 | B1 | ++ (++ = 1.1 to 2.0 fold improvement over control Variant No. 366)
2 | B2 | ++ (++ = 1.1 to 2.0 fold improvement over control Variant No. 366)
3 | B3 | ++ (++ = 1.1 to 2.0 fold improvement over control Variant No. 366)
4 | B4 | ++ (++ = 1.1 to 2.0 fold improvement over control Variant No. 366)
5 | B5 | +++ (+++ = 2.1 to 3.0 fold improvement over control Variant No. 366)
6 | B6 | ++ (++ = 1.1 to 2.0 fold improvement over control Variant No. 366)
7 | B7 | ++ (++ = 1.1 to 2.0 fold improvement over control Variant No. 366)
8 | B8 | ++ (++ = 1.1 to 2.0 fold improvement over control Variant No. 366)
9 | B9 | ++ (++ = 1.1 to 2.0 fold improvement over control Variant No. 366)
10 | B10 | ++ (++ = 1.1 to 2.0 fold improvement over control Variant No. 366)
11 | B11 | ++ (++ = 1.1 to 2.0 fold improvement over control Variant No. 366)
12 | B12 | +++ (+++ = 2.1 to 3.0 fold improvement over control Variant No. 366)
13 | B13 | +++ (+++ = 2.1 to 3.0 fold improvement over control Variant No. 366)
14 | B14 | ++ (++ = 1.1 to 2.0 fold improvement over control Variant No. 366)
15 | B15 | ++ (++ = 1.1 to 2.0 fold improvement over control Variant No. 366)
16 | B16 | +++ (+++ = 2.1 to 3.0 fold improvement over control Variant No. 366)
17 | B17 | ++ (++ = 1.1 to 2.0 fold improvement over control Variant No. 366)

Row | Molecule | Fold Improvement over Control Variant
18 | B18 | ++ (++ = 1.1 to 2.0 fold improvement over control Variant No. 366)
19 | B19 | ++ (++ = 1.1 to 2.0 fold improvement over control Variant No. 366)
20 | B20 | +++ (+++ = 2.1 to 3.0 fold improvement over control Variant No. 366)
21 | B21 | ++ (++ = 1.1 to 2.0 fold improvement over control Variant No. 366)
22 | B22 | ++ (++ = 1.1 to 2.0 fold improvement over control Variant No. 366)
23 | B23 | ++ (++ = 1.1 to 2.0 fold improvement over control Variant No. 366)
24 | B24 | ++ (++ = 1.1 to 2.0 fold improvement over control Variant No. 366)
25 | B25 | ++ (++ = 1.1 to 2.0 fold improvement over control Variant No. 366)
26 | B26 | +++ (+++ = 2.1 to 3.0 fold improvement over control Variant No. 366)
27 | B27 | +++ (+++ = 2.1 to 3.0 fold improvement over control Variant No. 366)
28 | B28 | ++ (++ = 1.1 to 2.0 fold improvement over control Variant No. 366)
29 | B29 | ++ (++ = 1.1 to 2.0 fold improvement over control Variant No. 366)
30 | B30 | +++ (+++ = 2.1 to 3.0 fold improvement over control Variant No. 366)
31 | B31 | ++ (++ = 1.1 to 2.0 fold improvement over control Variant No. 366)
32 | B32 | ++ (++ = 1.1 to 2.0 fold improvement over control Variant No. 366)
33 | B33 | ++ (++ = 1.1 to 2.0 fold improvement over control Variant No. 366)
